Experimental findings from patent US20100254988A1 are described below.

The target in one assay is human c-Met ECD (human) (UniProt P08581). The assay is described as follows: SPR (Biacore T100), antibody captured by anti-Fc gamma antibody, c-Met ECD as analyte, 25 C. Background: In SPR one partner is held on a chip, and binding of the other changes the refractive index at the surface.
Assay [1] deals with c-Met receptor on OVCAR-8 cells (human) (UniProt P08581). Put plainly: cell-based or functional assay.

Consider “BsAB02, trivalent bispecific <ErbB-2-c-Met> antibody (full length trastuzumab with one single chain Fab fragment of c-Met 5D5 (humanized) at the C-terminus of the knob heavy chain) (bispecific antibody)”, for which, in the assay with human c-Met ECD (human), the Kd (as a rule, the free concentration of one partner at which half of the binding sites on the other are occupied at equilibrium, for simple one-to-one binding) was 8.2 nM. Further, in assay [1], the % Internalization of c-Met after 1 hour on OVCAR-8 cells (=100-% antibody on cell surface) was -7% and the % c-Met receptor on OVCAR-8 cell surface measured after 1 hour was found to be 107%.
